From paper PMC10836720

Biological target: A. baumannii 118362 Family 2A encapsulin shell protein (J517_0527) (Acinetobacter baumannii 118362)
Assay: cryo-EM structure

A. baumannii 118362 Family 2A encapsulin shell protein (J517_0527) (natural protein)
stoichiometry N: 60 subunits
